Consider two molecules from article PMC5429807, “Glucose uptake in Azotobacter vinelandii occurs through a GluP transporter that is under the control of the CbrA/CbrB and Hfq-Crc systems”.

The target of data set [1] is T1, Crc (Azotobacter vinelandii AEIV, UniProt C1DI50 1-259).
T1 sequence: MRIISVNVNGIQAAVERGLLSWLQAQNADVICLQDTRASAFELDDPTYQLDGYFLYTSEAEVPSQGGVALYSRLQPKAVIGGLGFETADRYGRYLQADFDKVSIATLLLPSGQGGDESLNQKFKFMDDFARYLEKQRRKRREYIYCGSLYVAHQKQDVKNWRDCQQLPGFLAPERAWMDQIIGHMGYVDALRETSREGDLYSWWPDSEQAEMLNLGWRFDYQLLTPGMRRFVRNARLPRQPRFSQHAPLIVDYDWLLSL
The data set can be described thus: EMSA; Crc alone; RNA EMSA as in a cited protocol (ref. 13), excess tRNA, non-denaturing polyacrylamide gel; buffer, salt, pH and temperature not given in the material. Particulars: protein: recombinant; tags: none (intein removed); label: 5'-32P; single strand. For orientation: Mobility shift assays separate free from complexed probe on a gel.

Data set [2] addresses T2, Hfq-His;Crc (Azotobacter vinelandii …, UniProt C1DLQ2;C1DI50 1-84;1-259, |). Put plainly: EMSA; about equimolar Hfq hexamer and Crc needed; RNA EMSA as in a cited protocol (ref. 13), excess tRNA, non-denaturing polyacrylamide gel; buffer, salt, pH and temperature not given in the material. Particulars: protein: recombinant;recombinant; tags: C-terminal His6;none (intein removed); chain copies: 6;1; label: 5'-32P; single strand.

Data set [3] deals with T3, Hfq-His (P. putida) (Pseudomonas putida, UniProt Q88DD3 1-86).
T3 sequence: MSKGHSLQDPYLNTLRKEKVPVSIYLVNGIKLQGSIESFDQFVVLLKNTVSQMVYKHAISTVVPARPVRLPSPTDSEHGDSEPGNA
The data set can be described thus: EMSA; Hfq alone, at the tested concentrations; RNA EMSA as in a cited protocol (ref. 13), excess tRNA, non-denaturing polyacrylamide gel; buffer, salt, pH and temperature not given in the material. Particulars: protein: recombinant; tags: His; chain copies: 6; label: 5'-32P; single strand.

Data set [4] addresses T2, Hfq-His;Crc. Put plainly: EMSA; control RNA; stable complex not observed; RNA EMSA as in a cited protocol (ref. 13), excess tRNA, non-denaturing polyacrylamide gel; buffer, salt, pH and temperature not given in the material. Particulars: protein: recombinant;recombinant; tags: C-terminal His6;none (intein removed); chain copies: 6;1; single strand.

T2 sequence (C1DLQ2 whole entry, one chain of several): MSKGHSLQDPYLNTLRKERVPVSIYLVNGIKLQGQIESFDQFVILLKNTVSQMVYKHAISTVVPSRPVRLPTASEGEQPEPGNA

Turning to AAGCAACAAUCACAACAAGAGGAAAU (ssRNA) [gluP A-rich RNA oligo], the binding result is given as “no binding” in data set [1], “binds” in data set [2] and “no binding” in data set [3].

For UUCCCCAUCUCCCCAUCCAUAGGGGC (ssRNA) [DmpR 6C control RNA], the binding result in data set [4] is on record as “no binding”.
